From patent publication US20030049732A1 (Human Genome Sciences, published 2003)
Blank lines part the entries; values can stand above or below the binder they belong to.

B1: Caspase-9 (enzyme, UniProt P55211 1-416, looked up)
chain: MDEADRRLLRRCRLRLVEELQVDQLWDALLSRELFRPHMIEDIQRAGSGSRRDQARQLIIDLETRGSQALPLFISCLEDTGQDMLASFLRTNRQAAKLSKPTLENLTPVVLRPEIRKPEVLRPETPRPVDIGSGGFGDVGALESLRGNADLAYILSMEPCGHCLIINNVNFCRESGLRTRTGSNIDCEKLRRRFSSLHFMVEVKGDLTAKKMVLALLELAQQDHGALDCCVVVILSHGCQASHLQFPGAVYGTDGCPVSVEKIVNIFNGTSCPSLGGKPKLFFIQACGGEQKDHGFEVASTSPEDESPGSNPEPDATPFQEGLRTFDQLDAISSLPTPSDIFVSYSTFPGFVSWRDPKSGSWYVETLDDIFEQWAHSEDLQSLLLRVANAVSVKGIYKQMPGCFNFLRKKLFFKTS
notes: also called procaspase-9; procaspas-9

Key:
[1] = target: T1, Nod1 mutant, residues 126-953 (human, UniProt Q9Y239 126-953); assay: co-immunoprecipitation from co-transfected 293T cells, immunoblot
T1 construct: also called mutant lacking the CARD
T1 sequence: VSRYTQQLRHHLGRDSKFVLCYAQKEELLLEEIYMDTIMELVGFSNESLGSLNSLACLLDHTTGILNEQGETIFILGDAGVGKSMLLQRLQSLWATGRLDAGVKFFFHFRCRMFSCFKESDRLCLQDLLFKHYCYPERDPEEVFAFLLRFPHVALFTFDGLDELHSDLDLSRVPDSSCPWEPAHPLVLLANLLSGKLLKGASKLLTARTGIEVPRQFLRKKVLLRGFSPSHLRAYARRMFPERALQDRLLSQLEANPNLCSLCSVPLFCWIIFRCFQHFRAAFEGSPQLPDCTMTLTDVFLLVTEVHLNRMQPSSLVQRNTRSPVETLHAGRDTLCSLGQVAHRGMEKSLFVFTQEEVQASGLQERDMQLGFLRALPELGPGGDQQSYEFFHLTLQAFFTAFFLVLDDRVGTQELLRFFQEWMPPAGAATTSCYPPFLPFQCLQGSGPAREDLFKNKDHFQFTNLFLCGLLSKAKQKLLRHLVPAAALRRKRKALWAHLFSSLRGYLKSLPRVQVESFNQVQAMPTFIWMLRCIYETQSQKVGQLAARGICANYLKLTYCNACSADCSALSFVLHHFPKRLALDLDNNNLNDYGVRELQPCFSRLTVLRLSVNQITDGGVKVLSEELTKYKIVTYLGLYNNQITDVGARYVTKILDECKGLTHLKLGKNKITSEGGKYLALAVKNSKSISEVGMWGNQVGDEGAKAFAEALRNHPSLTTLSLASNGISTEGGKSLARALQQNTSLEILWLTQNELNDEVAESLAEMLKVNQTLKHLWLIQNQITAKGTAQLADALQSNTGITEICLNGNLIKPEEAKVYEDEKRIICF
Description: (§1) Both Ced-4 and Apaf-1 associate with their target caspases via their corresponding CARDs (Zou et al., Cell, 90:405 (1997); Hu et al., Proc. Natl. Acad. Sci. USA, 95:4386 (1998); ); Chinnaiyan et al., Nature, 388:728 (1997); Hu et al., Proc. Natl. Acad. Sci. USA, 95:4386 (1998); Srinivasula et al., Mol. Cell, 1:946 (1998); Chaudhary et al., J. Biol. Chem., 273:17708 (1998); Yang et al., Science, 281:1355 (1998)).

RICK = target: T2, RICK (UniProt O43353 1-540); assay: co-transfection of WT or mutant Nod1 and RICK in 293T cells
T2 construct: also called serine-threonine kinase with a CARD
T2 sequence (O43353 whole entry): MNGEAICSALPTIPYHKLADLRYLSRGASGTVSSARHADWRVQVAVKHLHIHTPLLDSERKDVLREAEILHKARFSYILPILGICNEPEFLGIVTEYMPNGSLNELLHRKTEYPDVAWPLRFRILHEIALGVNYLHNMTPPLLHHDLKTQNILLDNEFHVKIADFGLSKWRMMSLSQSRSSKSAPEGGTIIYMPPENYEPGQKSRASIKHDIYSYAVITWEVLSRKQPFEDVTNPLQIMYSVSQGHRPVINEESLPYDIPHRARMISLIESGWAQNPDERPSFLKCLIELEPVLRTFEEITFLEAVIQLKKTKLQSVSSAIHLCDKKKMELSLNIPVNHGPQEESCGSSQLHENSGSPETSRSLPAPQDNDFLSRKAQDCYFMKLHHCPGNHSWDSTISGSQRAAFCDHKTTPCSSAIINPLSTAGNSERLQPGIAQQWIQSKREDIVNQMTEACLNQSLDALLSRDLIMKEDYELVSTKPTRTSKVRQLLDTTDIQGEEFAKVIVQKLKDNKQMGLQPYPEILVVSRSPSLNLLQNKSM

Caspase-9 = target: B1; assay: co-immunoprecipitation from co-transfected 293T cells, immunoblot
Description: as §1

Apaf-1 = target: T3, Apaf-1 (UniProt O14727-3 1-1194, limits assumed); assay: co-immunoprecipitation, tagged proteins transiently expressed in 293T cells
T3 sequence (looked up): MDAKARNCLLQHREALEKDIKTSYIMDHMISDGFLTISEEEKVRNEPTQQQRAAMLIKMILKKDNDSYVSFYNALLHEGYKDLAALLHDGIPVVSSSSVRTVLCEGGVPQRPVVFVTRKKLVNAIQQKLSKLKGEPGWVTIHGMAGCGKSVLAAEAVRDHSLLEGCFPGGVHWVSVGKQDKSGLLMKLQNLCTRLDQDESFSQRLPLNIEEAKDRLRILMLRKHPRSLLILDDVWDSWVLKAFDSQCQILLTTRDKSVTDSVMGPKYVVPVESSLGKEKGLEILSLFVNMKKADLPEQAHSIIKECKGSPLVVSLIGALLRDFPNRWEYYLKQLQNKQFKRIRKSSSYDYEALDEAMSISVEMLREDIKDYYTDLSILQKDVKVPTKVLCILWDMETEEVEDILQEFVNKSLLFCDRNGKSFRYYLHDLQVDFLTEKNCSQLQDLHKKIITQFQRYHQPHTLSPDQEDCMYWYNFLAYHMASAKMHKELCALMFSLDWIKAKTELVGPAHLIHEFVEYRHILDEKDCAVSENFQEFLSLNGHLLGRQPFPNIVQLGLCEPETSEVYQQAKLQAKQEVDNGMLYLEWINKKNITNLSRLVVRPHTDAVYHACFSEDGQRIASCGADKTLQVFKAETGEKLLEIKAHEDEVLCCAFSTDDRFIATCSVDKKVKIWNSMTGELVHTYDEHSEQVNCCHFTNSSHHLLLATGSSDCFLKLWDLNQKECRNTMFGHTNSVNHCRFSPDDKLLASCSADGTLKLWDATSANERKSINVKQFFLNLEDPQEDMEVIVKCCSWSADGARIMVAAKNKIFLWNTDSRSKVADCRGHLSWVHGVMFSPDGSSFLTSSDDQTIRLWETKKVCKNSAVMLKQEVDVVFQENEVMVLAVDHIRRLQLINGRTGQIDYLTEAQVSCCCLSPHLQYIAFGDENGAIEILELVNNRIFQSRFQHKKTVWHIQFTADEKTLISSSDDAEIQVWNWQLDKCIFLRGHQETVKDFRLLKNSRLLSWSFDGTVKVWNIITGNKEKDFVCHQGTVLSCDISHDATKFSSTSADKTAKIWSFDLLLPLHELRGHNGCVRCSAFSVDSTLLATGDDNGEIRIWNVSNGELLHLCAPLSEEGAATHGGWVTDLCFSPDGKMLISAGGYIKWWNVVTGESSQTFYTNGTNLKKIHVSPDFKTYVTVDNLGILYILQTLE
Description: The CARD and its structurally related death effector domain (DED) are peptide motifs that mediate interactions between apoptosis-regulatory proteins (Science 281:1301 (1998); Hofmann et al., Trends Biochem. Sci. 22:155 (1998)).

Nod1 V41Q = target: T4, Nod1 V41Q (human, UniProt Q9Y239 1-953); assay: co-immunoprecipitation from co-transfected 293T cells, immunoblot
T4 construct: also called V41 Q point mutant in the CARD
T4 sequence: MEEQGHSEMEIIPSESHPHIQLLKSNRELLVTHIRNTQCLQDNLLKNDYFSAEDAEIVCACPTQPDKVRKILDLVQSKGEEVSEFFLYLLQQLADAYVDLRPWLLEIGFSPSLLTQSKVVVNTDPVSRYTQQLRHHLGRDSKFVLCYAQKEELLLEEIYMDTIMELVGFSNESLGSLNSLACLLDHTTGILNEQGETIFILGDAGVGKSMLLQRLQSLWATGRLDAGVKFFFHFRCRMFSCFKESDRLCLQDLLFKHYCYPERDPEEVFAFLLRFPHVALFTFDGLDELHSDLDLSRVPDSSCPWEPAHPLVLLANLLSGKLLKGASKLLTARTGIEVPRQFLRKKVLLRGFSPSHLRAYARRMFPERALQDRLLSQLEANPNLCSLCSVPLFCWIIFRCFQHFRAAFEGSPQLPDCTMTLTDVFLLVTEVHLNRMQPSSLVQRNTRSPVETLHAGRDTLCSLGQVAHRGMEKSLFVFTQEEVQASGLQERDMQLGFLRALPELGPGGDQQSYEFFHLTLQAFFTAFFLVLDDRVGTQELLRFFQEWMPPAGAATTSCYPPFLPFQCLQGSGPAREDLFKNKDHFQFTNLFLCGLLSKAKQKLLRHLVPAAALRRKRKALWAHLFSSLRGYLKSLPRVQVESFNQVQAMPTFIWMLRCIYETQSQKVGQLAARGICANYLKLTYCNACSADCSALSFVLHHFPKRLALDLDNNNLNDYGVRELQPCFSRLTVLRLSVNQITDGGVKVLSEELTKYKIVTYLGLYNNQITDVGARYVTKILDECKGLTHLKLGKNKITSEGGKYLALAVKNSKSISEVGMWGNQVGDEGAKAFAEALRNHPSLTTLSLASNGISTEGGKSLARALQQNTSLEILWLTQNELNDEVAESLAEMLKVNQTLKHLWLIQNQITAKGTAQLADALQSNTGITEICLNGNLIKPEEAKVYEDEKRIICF
Description: as §1

Binder: B1
binding result [1]: no binding

binding result (RICK): no binding | binding result (Caspase-9): no binding
B2: Nod1 mutant, residues 649-953 (other)
chain: MPTFIWMLRCIYETQSQKVGQLAARGICANYLKLTYCNACSADCSALSFVLHHFPKRLALDLDNNNLNDYGVRELQPCFSRLTVLRLSVNQITDGGVKVLSEELTKYKIVTYLGLYNNQITDVGARYVTKILDECKGLTHLKLGKNKITSEGGKYLALAVKNSKSISEVGMWGNQVGDEGAKAFAEALRNHPSLTTLSLASNGISTEGGKSLARALQQNTSLEILWLTQNELNDEVAESLAEMLKVNQTLKHLWLIQNQITAKGTAQLADALQSNTGITEICLNGNLIKPEEAKVYEDEKRIICF
notes: also called the LRRs of Nod1; mutant containing the LRRs

binding result (Apaf-1): no binding
B3: Nod1 (other)
chain: MEEQGHSEMEIIPSESHPHIQLLKSNRELLVTHIRNTQCLVDNLLKNDYFSAEDAEIVCACPTQPDKVRKILDLVQSKGEEVSEFFLYLLQQLADAYVDLRPWLLEIGFSPSLLTQSKVVVNTDPVSRYTQQLRHHLGRDSKFVLCYAQKEELLLEEIYMDTIMELVGFSNESLGSLNSLACLLDHTTGILNEQGETIFILGDAGVGKSMLLQRLQSLWATGRLDAGVKFFFHFRCRMFSCFKESDRLCLQDLLFKHYCYPERDPEEVFAFLLRFPHVALFTFDGLDELHSDLDLSRVPDSSCPWEPAHPLVLLANLLSGKLLKGASKLLTARTGIEVPRQFLRKKVLLRGFSPSHLRAYARRMFPERALQDRLLSQLEANPNLCSLCSVPLFCWIIFRCFQHFRAAFEGSPQLPDCTMTLTDVFLLVTEVHLNRMQPSSLVQRNTRSPVETLHAGRDTLCSLGQVAHRGMEKSLFVFTQEEVQASGLQERDMQLGFLRALPELGPGGDQQSYEFFHLTLQAFFTAFFLVLDDRVGTQELLRFFQEWMPPAGAATTSCYPPFLPFQCLQGSGPAREDLFKNKDHFQFTNLFLCGLLSKAKQKLLRHLVPAAALRRKRKALWAHLFSSLRGYLKSLPRVQVESFNQVQAMPTFIWMLRCIYETQSQKVGQLAARGICANYLKLTYCNACSADCSALSFVLHHFPKRLALDLDNNNLNDYGVRELQPCFSRLTVLRLSVNQITDGGVKVLSEELTKYKIVTYLGLYNNQITDVGARYVTKILDECKGLTHLKLGKNKITSEGGKYLALAVKNSKSISEVGMWGNQVGDEGAKAFAEALRNHPSLTTLSLASNGISTEGGKSLARALQQNTSLEILWLTQNELNDEVAESLAEMLKVNQTLKHLWLIQNQITAKGTAQLADALQSNTGITEICLNGNLIKPEEAKVYEDEKRIICF
notes: also called wild-type Nod1; WT Nod1

binding result (Nod1 V41Q): no binding
B4: Caspase-9 C287S (enzyme, UniProt P55211 1-416, looked up)
chain: MDEADRRLLRRCRLRLVEELQVDQLWDALLSRELFRPHMIEDIQRAGSGSRRDQARQLIIDLETRGSQALPLFISCLEDTGQDMLASFLRTNRQAAKLSKPTLENLTPVVLRPEIRKPEVLRPETPRPVDIGSGGFGDVGALESLRGNADLAYILSMEPCGHCLIINNVNFCRESGLRTRTGSNIDCEKLRRRFSSLHFMVEVKGDLTAKKMVLALLELAQQDHGALDCCVVVILSHGCQASHLQFPGAVYGTDGCPVSVEKIVNIFNGTSCPSLGGKPKLFFIQASGGEQKDHGFEVASTSPEDESPGSNPEPDATPFQEGLRTFDQLDAISSLPTPSDIFVSYSTFPGFVSWRDPKSGSWYVETLDDIFEQWAHSEDLQSLLLRVANAVSVKGIYKQMPGCFNFLRKKLFFKTS
notes: Named only once, in the sentence on Nod1 V41Q
